What was measured:
[1] = molecular target: SARS-CoV-2 B.1.1.7 N501Y (Alpha) RBD (SARS-CoV-2) (UniProt P0DTC2); assay: Octet BLI single point, monovalent
[2] = molecular target: SARS-CoV-2 L452R RBD (Epsilon) (SARS-CoV-2) (UniProt P0DTC2); assay: Octet BLI single point, monovalent

Question: Which Kd [1] does the source give for RGN10933 (antibody) here?
Answer: The Kd was 0.00657 µM.

Question: And the Kd [2]?
Answer: Its Kd is 0.00952 µM.

Question: Which results are given for RGN10987 (antibody)?
Answer: Kd [1]: 0.0151 µM; Kd [2]: 0.0174 µM
